# Literature values in US20090291133A1, “METHODS AND COMPOSTIONS FOR ENHANCING TRANSDERMAL DRUG DELIVERY” (NATIONAL HEALTH RESEARCH INSTITUTES, priority 2008, published 2009).
# Where two headings read alike, the source gives them in different places.
# B1: papain (protein, UniProt P00784 134-345, looked up)
# Papain: IPEYVDWRQKGAVTPVKNQGSCGSCWAFSAVVTIEGIIKIRTGNLNEYSEQELLDCDRRSYGCNGGYPWSALQLVAQYGIHYRNTYPYEGVQRYCRSREKGPYAAKTDGVRQVQPYNEGALLYSIANQPVSVVLEAAGKDFQLYRGGIFVGPCGNKVDHAVAAVGYGPNYILIKNSWGTGWGENGYIRIKRGTGNSYGVCGLYTSSFYPVKN
# notes: proteolytic enzyme used as permeability enhancer
# Details: reported in US005534260A
molecule,measurement,setting,value
B1,safe concentration of papain,equivalent in solution,4 µM
same,safe concentration of papain,,around 0.093 mg/ml
